The target of the data set is insulin (UniProt P01308;P01308 25-54;90-110). Kind of data set: circular dichroism; 20 uM aptamer, 100 nM insulin; G4 spectrum (min 245 nm, max 275 nm) after interaction with insulin; Binding buffer 20 mM Tris-HCl, 140 mM NaCl, 5 mM KCl, 1 mM CaCl2, 1 mM MgCl2, pH 7.4, room temperature, 40-60 min; then hemin in DMSO 1 h and TMB-H2O2; random N30 control is a pool and not listed. The note with it: protein: commercial, copies: 1;1, label: 5' biotin.
Sequence of insulin (P01308 25-54, chain 1 of 2): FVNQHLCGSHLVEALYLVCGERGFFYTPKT
Sequence of insulin (P01308 90-110, chain 2 of 2): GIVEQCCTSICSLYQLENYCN

As for GGTGGTGGGGGGGGTTGGTAGGGTGTCTTC (structured_DNA) [G-quadruplex insulin aptamer (G-rich aptamer)], the binding result is reported as “binds”.
